# Like-named read-outs stand apart in the source and are kept apart here.
# Tests used:
# PCSK9 [1] = target: T1, PCSK9 (Homo sapiens, UniProt Q8NBP7); assay: Example 3 clinical study, single IV dose on stable atorvastatin: fasting LDL-C; format: in vivo
# T1 construct: PCSK9 antagonist antibody that antagonizes circulating PCSK9; endogenous in cells; host or cells: human subjects in clinical trials (in vivo, circulating PCSK9)
# From the text: Subjects who have hypertension and are controlled on stable dosages of anti-hypertensive medications could be included. The study included both genders, with a minimum age limit of 18 and a maximum age limit of 80.
# PCSK9 [2] = target: T1, PCSK9; assay: Example 5 clinical study, four weekly IV doses: fasting LDL-C; format: in vivo, human Japanese subjects; details: weekly IV 0.25, 0.5, 1.0, 1.5 mg/kg on Days 1, 8, 15, 22; baseline about 155 mg/dL
# From the text: This study was a randomized, multi-center, double-blind, placebo control, parallel designed trial with a 28 day screening period, 4 week treatment period and 8 week follow-up period (FIG. 11). […] For each subject, the study consisted of 3 periods: screening, treatment, and follow-up. […] The follow-up period will lasted approximately 8 weeks, from approximately Day 29 to the last visit (Day 78).
# PCSK9 [3] = assay: LDL-C and HDL-C in cynomolgus monkeys after IV dosing; format: in vivo
# From the text: One (1) mg/kg dosing reached a maximum effect of 71% reduction in LDL-C on day 5, and began to recover immediately thereafter, reaching pre-dose levels by day 14. Three (3) mg/kg dosing reached a maximum effect of 72% reduction in LDL-C by day 7, levels began to recover by day 13, and returned to baseline by day 22. Ten (10) mg/kg dosing maintained the 70% reduction in LDL-C levels until day 21 post-dosing, and animals fully recovered by day 31. […] HDL-C levels were not affected by L1L3 treatment in all dose groups.
# These two additional doses again lowered LDL-C and kept LDL-C levels below 50% for 4 weeks. LDL-C levels returned to normal two weeks later.
# [4] = Experimental: Subjects were seen periodically in the clinic for safety assessments and collection of blood for safety labs, lipid profiles, PK, PD, and immunogenicity samples. Telephone contacts were made prior to each visit to remind them of the 10-hour fasting requirements, during screening and on Day 3 to assess adverse events and document the contact in the subject's source document. […] Infusions were administered as a single infusion over approximately 60 minutes.
# T1 sequence (Q8NBP7 153-692): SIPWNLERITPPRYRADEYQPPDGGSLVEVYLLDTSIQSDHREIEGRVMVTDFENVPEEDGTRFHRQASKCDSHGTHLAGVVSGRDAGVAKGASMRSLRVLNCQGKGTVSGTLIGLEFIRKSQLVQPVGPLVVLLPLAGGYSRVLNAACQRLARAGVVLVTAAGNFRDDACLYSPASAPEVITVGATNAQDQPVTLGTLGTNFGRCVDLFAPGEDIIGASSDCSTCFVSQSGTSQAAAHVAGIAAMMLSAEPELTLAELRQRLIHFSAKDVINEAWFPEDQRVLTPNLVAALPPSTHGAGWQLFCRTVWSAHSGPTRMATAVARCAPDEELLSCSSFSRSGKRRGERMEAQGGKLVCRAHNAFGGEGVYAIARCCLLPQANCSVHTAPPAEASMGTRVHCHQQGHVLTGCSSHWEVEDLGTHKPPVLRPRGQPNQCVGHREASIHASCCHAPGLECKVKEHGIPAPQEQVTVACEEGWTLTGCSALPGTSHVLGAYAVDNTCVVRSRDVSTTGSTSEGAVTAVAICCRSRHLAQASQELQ
# T1 sequence (Q8NBP7 31-152 partner limits assumed): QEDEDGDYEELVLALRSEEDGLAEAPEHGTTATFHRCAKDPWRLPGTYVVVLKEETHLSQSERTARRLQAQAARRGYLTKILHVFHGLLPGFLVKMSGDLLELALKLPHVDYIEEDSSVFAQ
molecule,measurement,setting,value
"L1L3: humanized (<5% murine residues) monoclonal PCSK9 antagonist antibody that binds to secreted PCSK9; VH SEQ ID NO: 11, VL SEQ ID NO: 12 (antibody, V domains shown, heavy chain variable region; light chain variable region) VH: QVQLVQSGAEVKKPGASVKVSCKASGYTFTSYYMHWVRQAPGQGLEWMGEISPFGGRTNYNEKFKSRVTMTRDTSTSTVYMELSSLRSEDTAVYYCARERPLYASDLWGQGTTVTVSS VL: DIQMTQSPSSLSASVGDRVTITCRASQGISSALAWYQQKPGKAPKLLIYSASYRYTGVPSRFSGSGSGTDFTFTISSLQPEDIATYYCQQRYSLWRTFGQGTKLEIK",mean percent change from baseline of fasting LDL-C,"PCSK9 [1]; 0.5 mg/kg L1L3, atorvastatin 40 mg daily, Day 0",0.0%
same,mean percent change from baseline of fasting LDL-C,"PCSK9 [1]; 0.5 mg/kg L1L3, atorvastatin 40 mg daily, Day 1",−28.8%
same,mean percent change from baseline of fasting LDL-C,"PCSK9 [1]; 0.5 mg/kg L1L3, atorvastatin 40 mg daily, Day 2",−48.5%
same,mean percent change from baseline of fasting LDL-C,"PCSK9 [1]; 0.5 mg/kg L1L3, atorvastatin 40 mg daily, Day 3",−66.7%
same,mean percent change from baseline of fasting LDL-C,"PCSK9 [1]; 0.5 mg/kg L1L3, atorvastatin 40 mg daily, Day 11",−34.4%
same,mean percent change from baseline of fasting LDL-C,"PCSK9 [1]; 0.5 mg/kg L1L3, atorvastatin 40 mg daily, Day 18",9.0%
same,mean percent change from baseline of fasting LDL-C,"PCSK9 [1]; 0.5 mg/kg L1L3, atorvastatin 40 mg daily, Day 25",23.3%
same,mean percent change from baseline of fasting LDL-C,"PCSK9 [1]; 0.5 mg/kg L1L3, atorvastatin 40 mg daily, Day 32",14.8%
same,mean percent change from baseline of fasting LDL-C,"PCSK9 [1]; 0.5 mg/kg L1L3, atorvastatin 40 mg daily, Day 39",21.2%
same,mean percent change from baseline of fasting LDL-C,"PCSK9 [1]; 0.5 mg/kg L1L3, atorvastatin 40 mg daily, Day 46",17.0%
same,mean percent change from baseline of fasting LDL-C,"PCSK9 [1]; 0.5 mg/kg L1L3, atorvastatin 40 mg daily, Day 53",27.9%
same,mean percent change from baseline of fasting LDL-C,"PCSK9 [1]; 0.5 mg/kg L1L3, atorvastatin 40 mg daily, Day 60",30.1%
same,Day on which the maximum LDL-C lowering effect was observed,"PCSK9 [1]; 0.5 mg/kg L1L3, atorvastatin 40 mg, day following L1L3 administration",3 days
same,mean percent change from baseline of fasting LDL-C,"PCSK9 [1]; 4 mg/kg L1L3, atorvastatin 40 mg daily, Day 0",0.0%
same,mean percent change from baseline of fasting LDL-C,"PCSK9 [1]; 4 mg/kg L1L3, atorvastatin 40 mg daily, Day 1",−20.9%
same,mean percent change from baseline of fasting LDL-C,"PCSK9 [1]; 4 mg/kg L1L3, atorvastatin 40 mg daily, Day 2",−38.4%
same,mean percent change from baseline of fasting LDL-C,"PCSK9 [1]; 4 mg/kg L1L3, atorvastatin 40 mg daily, Day 3",−43.3%
same,mean percent change from baseline of fasting LDL-C,"PCSK9 [1]; 4 mg/kg L1L3, atorvastatin 40 mg daily, Day 11",−64.6%
same,mean percent change from baseline of fasting LDL-C,"PCSK9 [1]; 4 mg/kg L1L3, atorvastatin 40 mg daily, Day 18",−73.2%
same,mean percent change from baseline of fasting LDL-C,"PCSK9 [1]; 4 mg/kg L1L3, atorvastatin 40 mg daily, Day 25",−70.8%
same,mean percent change from baseline of fasting LDL-C,"PCSK9 [1]; 4 mg/kg L1L3, atorvastatin 40 mg daily, Day 32",−69.9%
same,mean percent change from baseline of fasting LDL-C,"PCSK9 [1]; 4 mg/kg L1L3, atorvastatin 40 mg daily, Day 39",−45.1%
same,mean percent change from baseline of fasting LDL-C,"PCSK9 [1]; 4 mg/kg L1L3, atorvastatin 40 mg daily, Day 46",−19.2%
same,mean percent change from baseline of fasting LDL-C,"PCSK9 [1]; 4 mg/kg L1L3, atorvastatin 40 mg daily, Day 53",−3.6%
same,mean percent change from baseline of fasting LDL-C,"PCSK9 [1]; 4 mg/kg L1L3, atorvastatin 40 mg daily, Day 60",7.1%
same,Day through which the maximum LDL-C lowering effect was observed,"PCSK9 [1]; 4 mg/kg L1L3, atorvastatin 40 mg, day following L1L3 administration",32 days
same,Fasting LDL-C,PCSK9 [2],"sustained, substantial and durable dose-dependent fasting LDL-C lowering"
same,Day by which LDL-C recovered,PCSK9 [3]; single IV 0.1 mg/kg,≤ 5 days
same,LDL-C drop (transient),"PCSK9 [3]; single IV 0.1 mg/kg, day 2",50%
same,Day by which LDL-C reached pre-dose levels,PCSK9 [3]; single IV 1 mg/kg,≤ 14 days
same,"LDL-C reduction, maximum effect","PCSK9 [3]; single IV 1 mg/kg, day 5",71%
same,Day by which LDL-C returned to baseline,PCSK9 [3]; single IV 3 mg/kg,≤ 22 days
same,"LDL-C reduction, maximum effect","PCSK9 [3]; single IV 3 mg/kg, by day 7",72%
same,Day by which animals fully recovered (LDL-C),PCSK9 [3]; single IV 10 mg/kg,≤ 31 days
same,LDL-C reduction,"PCSK9 [3]; single IV 10 mg/kg, maintained until day 21 post-dosing",70%
same,HDL-C levels,"PCSK9 [3]; single IV 0.1, 1, 3, 10 mg/kg, all dose groups",not affected
same,Serum HDL-C levels,PCSK9 [3]; two additional IV doses of 3 mg/kg on study days 42 and 56,remained unchanged
same,LDL-C levels,"PCSK9 [3]; two additional IV doses of 3 mg/kg on study days 42 and 56, for 4 weeks",below 50%
same,Cmax,"[4]; 0.25 mg/kg, after 1st dose",10900 ± 13000 ng/mL
same,Ctrough,"[4]; 0.25 mg/kg, after 1st dose",109 ± 406 ng/mL
same,Ctrough,"[4]; 3 mg/kg, after 3rd dose",3040 ± 4420 ng/mL
same,Ctrough,"[4]; 6 mg/kg, after 3rd dose",15600 ± 15300 ng/mL

# — patent publication US20140161821A1, “TREATMENT WITH ANTI-PCSK9 ANTIBODIES” (PFIZER INC., priority 2011, published 2014)
